Results published in patent publication US20260217833A1 (APTEVO RESEARCH AND DEVELOPMENT, published 2026).
Positions count from the first letter of the chain named. Where two headings read alike, the source gives them in different places. Each block holds one binder with its values, some of them ahead of it.

Tests used:
Human PD-L1 full-length = molecular target: T1, Human PD-L1 full-length (human, UniProt Q9NZQ7 19-290); assay: MSD cell binding, CHOK1SV/human PD-L1 cells; x axis without printed unit
T1 construct: also called PDL01021; CHOK1SV/huPDL1
T1 sequence (Q9NZQ7 19-290): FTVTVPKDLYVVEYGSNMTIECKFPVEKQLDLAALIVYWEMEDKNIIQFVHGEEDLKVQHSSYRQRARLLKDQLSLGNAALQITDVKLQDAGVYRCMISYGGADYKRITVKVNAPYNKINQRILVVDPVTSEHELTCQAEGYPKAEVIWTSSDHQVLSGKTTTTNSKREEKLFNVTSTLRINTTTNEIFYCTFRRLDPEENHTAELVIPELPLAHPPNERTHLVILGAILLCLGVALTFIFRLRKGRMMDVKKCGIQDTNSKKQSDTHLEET

Cyno PD-L1 full-length = molecular target: T2, Cyno PD-L1 full-length (cynomolgus, UniProt Q9NZQ7 19-290 (human entry)); assay: MSD cell binding, CHOK1SV/cynomolgus PD-L1 cells; x axis without printed unit
T2 construct: also called PDL01022; CHOK1SV/cynoPDL1
T2 sequence (Q9NZQ7 other isoform, or with tags, fused parts or gaps): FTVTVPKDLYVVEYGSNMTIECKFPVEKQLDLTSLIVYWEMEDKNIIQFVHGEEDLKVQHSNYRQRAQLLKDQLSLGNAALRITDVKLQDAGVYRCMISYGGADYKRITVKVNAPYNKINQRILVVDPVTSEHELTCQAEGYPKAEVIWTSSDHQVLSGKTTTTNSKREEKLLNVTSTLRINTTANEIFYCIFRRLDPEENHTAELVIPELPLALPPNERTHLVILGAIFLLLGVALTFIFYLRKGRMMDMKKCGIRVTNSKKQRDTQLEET

human CD40 full-length [1] = molecular target: T3, human CD40 full-length (human, UniProt P25942 21-277); assay: flow cytometry, CHOK1SV/human CD40 cells
T3 construct: Also used for CD40 of Daudi cells, of CD40-expressing HEK293 cells and of the BPS CD40/NFkB HEK293 reporter cells where the row says so; also called CD4001012; CHOK1SV/CD40
Target sequence in this assay (P25942 21-277): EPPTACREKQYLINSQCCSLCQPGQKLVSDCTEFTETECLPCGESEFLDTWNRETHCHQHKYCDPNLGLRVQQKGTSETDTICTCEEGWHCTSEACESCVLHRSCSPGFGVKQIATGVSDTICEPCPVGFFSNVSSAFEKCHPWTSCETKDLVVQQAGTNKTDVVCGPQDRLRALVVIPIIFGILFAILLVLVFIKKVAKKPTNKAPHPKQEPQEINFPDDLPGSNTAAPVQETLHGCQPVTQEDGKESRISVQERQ

human CD40 ECD- HAC tag = molecular target: T4, human CD40 ECD- HAC tag (human); assay: SPR, binder captured on anti-human IgG, monomeric CD40 ECD injected, 1:1 fit
T4 construct: also called CD4001006; recombinant monomeric human CD40 ectodomain (ECD)

human CD40 full-length [2] = molecular target: T3, human CD40 full-length; assay: flow cytometry, CHOK1SV/human CD40 cells; remark: listed apart in the source
Cynomolgus CHOK1SV/CD40 = molecular target: T5, Cynomolgus CHOK1SV/CD40; assay: flow cytometry, CHOK1SV/cynomolgus CD40 cells
T5 construct: also called Cyno CD40 full-length; CD4001013
T5 receptor chain: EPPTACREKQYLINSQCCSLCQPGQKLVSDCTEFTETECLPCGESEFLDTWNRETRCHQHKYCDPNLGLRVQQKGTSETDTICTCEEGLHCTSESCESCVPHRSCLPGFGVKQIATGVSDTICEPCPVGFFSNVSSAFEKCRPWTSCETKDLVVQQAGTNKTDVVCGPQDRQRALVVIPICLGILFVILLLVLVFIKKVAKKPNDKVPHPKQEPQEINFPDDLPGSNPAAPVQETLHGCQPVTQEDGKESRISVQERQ

human CD40 full-length [3] = molecular target: T3, human CD40 full-length; assay: flow cytometry, CHOK1SV/human CD40 cells; remark: listed apart in the source

B1: PDL01041 (Fc fusion)
scFv: DIQMTQSPASLSASVGETVTITCRASENIYSFLAWYQQKQGKSPQLLVYKAKTLTEGVPSRFSGSGSGTQFSLKINSLQPEDFGSYYCQHHYGSPPETFGGGTKVEIKGGGGSGGGGSGGGGSGGGGSDVKLVESGGGLVKPGGSLKLSCAASGFTFSSYTMSWVRQTPEKRLEWVATISSGGNYTYYPDSVKGRFTISRDNAKNTLYLQLSSLKSEDTAMYYCTRDQAYYGNLFTYWGQGTLVTVSA
notes: also called 2C11LH x human IgG1 WT Fc; not shown: human IgG1 WT Fc and any junction residues between scFv and hinge
binding result (Human PD-L1 full-length): binds
binding result (Cyno PD-L1 full-length): binds

B2: PDL01038 (Fc fusion)
scFv: EVQLQESGPSLVKPSQTLSLTCSVTGDSITSGYWNWIRKFPGNRLEYMGFRSYSGTTYYNPSLKSRISITRDTSKNQYYLQLNSVTTEDTATYYCARFSDFGSSENTMDYWGQGTSVTVSSGGGGSGGGGSGGGGSGGGGSDVQITQSPSYLAASPGETITINCRASKSISKYLAWYQEKPGKTNKLLIYSGSTLQSGIPSRFSGSGSGTDFTLTISSLEPEDFAMYYCQQHNEYPFTFGAGTKLEIK
notes: also called 7A3-2HL x human IgG1 WT Fc; not shown: human IgG1 WT Fc (hinge-CH2-CH3) and its junction to the scFv
binding result (Human PD-L1 full-length): binds
binding result (Cyno PD-L1 full-length): binds

B3: CD4001100 (Fc fusion)
chain: DVQMTQSPILLSASVGDRVTITCRSSQSLVHYNGYTYVHWYQQRTNGSPRLLIYKVSNRFSGVPDRFSGSGSGTDFTLTISSLQPEDIADYFCQQTTHVPLTFGAGTKVEIKGGGGSGGGGSGGGGSGGGGSEVQLVESGGGLEQPGGSLRLSCAASGFTFSSYAMSWVRQAPGKGLEWVASISSAGTYIYYADSVKGRFTISRDNSKNTLYLQMNSLRAEDTAVYYCARHGNGYDPLWYFDVWGQGTTVTVSS
notes: As m65; not shown: wildtype IgG1 Fc region
binding result (human CD40 full-length [1]): binds
Kd (human CD40 ECD- HAC tag): 0.021 µM
koff (human CD40 ECD- HAC tag): 0.006 s⁻¹
kon (human CD40 ECD- HAC tag): 290000 M⁻¹ s⁻¹

B4: CD4001132 (Fc fusion)
chain: DVQMTQSPILLSASVGDRVTITCRSSQSLVHYNGYTYVHWYQQKPGKAPKLLIYKVSNLFSGVPSRFSGSGSGTDFTLTISSLQPEDIADYFCQQTTHVPLTFGAGTKVEIKGGGGSGGGGSGGGGSGGGGSEVQLVESGGGLVQPGGSLRLSCAASGFTFSSYAMSWVRQAPGKGLEWVSAISSAGTYIYYADSVKGRFTISRDNSKNTLYLQMNSLRAEDTAVYYCARHGNGYDPLWYFDVWGQGTTVTVSS
notes: as for B3
EC50 (read off the curve) (human CD40 full-length [2]): ~0.005 µM
kon (human CD40 ECD- HAC tag): 240000 M⁻¹ s⁻¹

B5: PDL01050 (antibody, human IgG1, kappa, V domains shown)
VH: EVKFEESGGGLVQPGGSMKLSCFASGFTFSYYWMNWVRQSPEKGLEWIAEIRLKSNNYATHYAESVKGRFTISRDDSKSSVYLEMNNLRAEDTGIYHCTRPPIYYGNYEAYWGQGTLVTVSA
VL: DIQMTQSPSSLSASLGGKVTITCKASQDINKYIAWYQHKPGKGPRLLIHYTSILQPGIPSRFSGSGSGRDYSFSISNLEPEDIATYYCLQYDNLRTFGGGTKLEIKR
notes: positive control; also called 5F11 chimeric mAb
binding result (Human PD-L1 full-length): binds
binding result (Cyno PD-L1 full-length): binds

B6: PDL01042 (Fc fusion)
scFv: DIQMTQTTSSLSASLGDRVTISCSASQGIRNYLNWYQQKPDGTVKLLIYYTSTLHSGVPSRFSGSGSGTDYSLTISNLEPEDIATYYCQQYSKLPWTFGGGTRLEIKGGGGSGGGGSGGGGSGGGGSQIQLQQSGPELVKPGASVKISCKASGYTFTDYYINWVKQKPEQGLEWIGWTFPGSINTKYNEKFKGKATLTVDTSSSTAYMQLNSLTSEDTAVYFCARSPYEFDYWGQGTTLTVSS
notes: also called 3G5LH x human IgG1 WT Fc; not shown: human IgG1 WT Fc (hinge-CH2-CH3) fused C-terminal to the scFv, and its junction
binding result (Human PD-L1 full-length): binds
binding result (Cyno PD-L1 full-length): binds

B7: PC401129 (bispecific antibody)
scFv-Fc-scFv chain: DIQMTQSPSSLSASVGDRVTITCRASQDINKFLSWYQQKPGKAPKLLIHYTSSLQSGVPSRFSGSGSGTDFTLTISSLQPEDFATYYCLQYDNLYTFGQGTKLEIKGGGGSGGGGSGGGGSGGGGSEVQLVESGGGLVQPGGSLRLSCAASGFTFSDYGMAWVRQAPGKGLEWVSFITSLAYIIYYADSVKGRFTISRDNAKNSLYLQMNSLRAEDTAVYYCARNYGSSPYYFDYWGQGTLVTVSSEPKSSDKTHTCPPCPAPPAAAPSVFLFPPKPKDTLMISRTPEVTCVVVDVSHEDPEVKFNWYVDGVEVHNAKTKPREEQYNSTYRVVSVLTVLHQDWLNGKEYKCAVSNKALPAPIEKTISKAKGQPREPQVYTLPPSRDELTKNQVSLTCLVKGFYPSDIAVEWESNGQPENNYKTTPPVLDSDGSFFLYSKLTVDKSRWQQGNVFSCSVMHEALHNHYTQKSLSLSPGGGGSPSDIQMTQSPSSVSASVGDRVTITCRASQSLNFSVNQKNYLAWYQQKPGKAPKLLIYWASSLQSGVPSRFSGSGSGTDFTLTISSLQPEDFATYYCQHYYSYPWTFGQGTKVEIKGGGGSGGGGSGGGGSGGGGSQVQLVQSGAEVKKPGSSVKVSCKASGYTFSTSWIEWIRQAPGQGLEWMGSILPGSGSTNYAQKFQGRVTITADTSTSTAYMELSSLRSEDTAVYYCARGDDGSYVRWYFDHWGQGTLVTVSS
notes: also called L-Leu30Asn
binding result (Cynomolgus CHOK1SV/CD40): binds
binding result (human CD40 full-length [3]): binds

B8: PC401132 (bispecific antibody)
scFv-Fc-scFv chain: B7 scFv-Fc-scFv chain with N512L, L667N
notes: also called H-Leu52Asn
binding result (Cynomolgus CHOK1SV/CD40): binds
binding result (human CD40 full-length [3]): binds

B9: PC401133 (bispecific antibody)
scFv-Fc-scFv chain: B7 scFv-Fc-scFv chain with N512L, L667Q
notes: also called H-Leu52Gln
binding result (Cynomolgus CHOK1SV/CD40): binds
binding result (human CD40 full-length [3]): binds

B10: CD401136 (Fc fusion)
scFv: DIVMTQSPDSLALSLGERATMNCKSSQSLLFSVNQKNYLAWYQQKPGQPPKLLIYWASTRESGVPDRFSGSGSGTDFTLTISSLQAEDVAVYYCQHYYSYPWTFGQGTKLEIKGGGGSGGGGSGGGGSGGGGSQVQLVQSGAEVKKPGASVKVSCKASGYTFSTSWMEWVRQAPGQGLEWMGEILPGSGSTNYAQKFQGRVTMTRDTSTSTVYMELSSLRSEDTAVYYCARGDDGSYVRWYFDVWGQGTTVTVSS
notes: humanized 1D5 variant; also called CD4001136; not shown: human Fc (scFv-hFc format, scFv at the N-terminus) and its junction
binding result (human CD40 full-length [2]): binds

B11: CD401135 (Fc fusion)
scFv: B10 scFv with M167I, M181I, V201A, M203F, R205A, V212A
notes: humanized 1D5 variant; also called CD4001135; not shown: human Fc (scFv-hFc format, scFv at the N-terminus) and its junction
binding result (human CD40 full-length [2]): binds

B12: CD401137 (Fc fusion)
scFv: QIVMTQSPGTLSLSPGERATMTCKSSQSLLFSVNQKNYLAWYQQKPGQAPRLLIYWASTRESGVPDRFSGSGSGTDFTLTISRLEPEDAATYYCQHYYSYPWTFGAGTKLEIKGGGGSGGGGSGGGGSGGGGSQVQLVQSGAEVKKPGASVKVSCKASGYTFSTSWMEWVRQAPGQGLEWMGEILPGSGSTNYAQKFQGRVTMTRDTSTSTVYMELSSLRSEDTAVYYCARGDDGSYVRWYFDVWGQGTTVTVSS
notes: humanized 1D5 variant; also called CD4001137; not shown: human Fc (scFv-hFc format, scFv at the N-terminus) and its junction
binding result (human CD40 full-length [2]): binds

Continued, values first:

binding result (human CD40 full-length [2]): binds
B13: CD401134 (Fc fusion)
scFv: B10 scFv with Q136K, M167I, V170I, M181I, V201A, M203F, R205A, V212A
notes: humanized 1D5 variant; also called CD4001134; not shown: human Fc (scFv-hFc format, scFv at the N-terminus) and its junction

binding result (Cynomolgus CHOK1SV/CD40): binds
B14: CD4001242 (Fc fusion)
chain: EPKSSDKTHTCPPCPAPPAAAPSVFLFPPKPKDTLMISRTPEVTCVVVDVSHEDPEVKFNWYVDGVEVHNAKTKPREEQYNSTYRVVSVLTVLHQDWLNGKEYKCAVSNKALPAPIEKTISKAKGQPREPQVYTLPPSRDELTKNQVSLTCLVKGFYPSDIAVEWESNGQPENNYKTTPPVLDSDGSFFLYSKLTVDKSRWQQGNVFSCSVMHEALHNHYTQKSLSLSPGGGGSPSDIQMTQSPSSVSASVGDRVTITCRASQSLLFSVNQKNYLAWYQQKPGKAPKLLIYWASSLQSGVPSRFSGSGSGTDFTLTISSLQPEDFATYYCQHYYSYPWTFGQGTKVEIKGGGGSGGGGSGGGGSGGGGSQVQLVQSGAEVKKPGSSVKVSCKASGYTFSTSWIEWIRQAPGQGLEWMGSILPGSGSTNYAQKFQGRVTITADTSTSTAYMELSSLRSEDTAVYYCARGDDGSYVRWYFDHWGQGTLVTVSS
notes: also called final humanized version of 1D5

binding result (Human PD-L1 full-length): binds
binding result (Cyno PD-L1 full-length): binds
B15: PDL01051 (antibody, human IgG1, kappa, V domains shown)
VH: EVQLQESGPSLVKPSQTLSLTCSVTGDSITSGYWNWIRKFPGNRLEYMGFRSYSGTTYYNPSLKSRISITRDTSKNQYYLQLNSVTTEDTATYYCARFSDFGSSENTMDYWGQGTSVTVSS
VL: DIVMTQSHKFMSTSVGDRVTITCKASQDVGTAVAWYQKKPGQSPKLLISWASTRHTGVPDRFTGSGSGTDFTLTISNVQSEDLADYFCQQYSSYPYTFGGGTNLEIKR
notes: positive control; also called 7A3 chimeric mAb

binding result (Human PD-L1 full-length): binds
binding result (Cyno PD-L1 full-length): binds
B16: PDL01039 (Fc fusion)
scFv: EVQLQESGPSLVKPSQTLSLTCSVTGDSITSGYWNWIRKFPGKKLEYMGYISYTGSTYYNPSLKSRISIARDTSKNQYFLQLNSVTTEDTATYYCTRGENWDGGYFDYWGQGTTLTVSSGGGGSGGGGSGGGGSGGGGSDIVLTQSPASLAVSLGQRATISCRASKSVSKSGYSYLHWYQQKPGQTPKLLIYLASNLESGVPARFSGSGSGTDFTLNIHPVEEEDAATYYCQHSWELPYTFGGGTKLEIK
notes: also called 7H11HL x human IgG1 WT Fc; not shown: human IgG1 WT Fc (hinge-CH2-CH3) and its junction to the scFv

binding result (Human PD-L1 full-length): binds
binding result (Cyno PD-L1 full-length): binds
B17: PDL01036 (6F6HL x human IgG1 WT Fc) (Fc fusion)
chain: QGQMQQSGAELVKPGASVKLSCKTSGFTFSSSYITWLKQKPGQSLEWIAWIYVGTGGISYNQKFTGKAQLTVDTSSSTAYMQFSSLTTEDSAIYYCARHGRYHWYFDVWGAGTTVTVSSGGGGSGGGGSGGGGSGGGGSDIVMTQSHKFMSTSVGDRVTITCKASQDVGTAVAWYQKKPGQSPKLLISWASTRHTGVPDRFTGSGSGTDFTLTISNVQSEDLADYFCQQYSSYPYTFGGGTNLEIK
notes: also called 6F6 clone PDL0136; not shown: human IgG1 WT Fc
